According to patent US20240024501A1 (BONUM THERAPEUTICS, published 2024):
Substitutions are numbered along the chain they refer to.

Biological target: PD-1-Fc (UniProt Q15116 25-167, limits assumed)
Test: cell-based or functional assay

Chain of PD-1-Fc (Q15116 25-167 limits assumed): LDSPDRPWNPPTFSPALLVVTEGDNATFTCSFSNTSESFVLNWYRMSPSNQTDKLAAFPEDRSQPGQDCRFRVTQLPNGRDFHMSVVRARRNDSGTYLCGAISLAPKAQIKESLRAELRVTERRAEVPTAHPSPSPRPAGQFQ

B1: AF4403 (other)
heavy 1: QVQLVESGGGVVQPGRSLRLDCKASGITFSNSGMHWVRQAPGKGLEWVAVIWYDGSKRYYADSVKGRFTISRDNSKNTLFLQMNSLRAEDTAVYYCATNDDYWGQGTLVTVSSAKTTAPSVYPLAPVCGDTTGSSVTLGCLVKGYFPEPVTLTWNSGSLSSGVHTFPAVLQSDLYTLSSSVTVTSSTWPSQSITCNVAHPASSTKVDKKIEPRGPTIKPCPPCKCPAPNAAGGPSVFIFPPKIKDVLMISLSPIVTCVVVDVSEDDPDVQISWFVNNVEVHTAQTQTHREDYNSTLRVVSALPIQHQDWMSGKEFKCKVNNKDLGAPIERTISKPKGSVRAPQVYVLPPPEKEMTKKQVSLTCLVKDFMPEDIYVEWTNNGKTELNYKNTEPVLKSDGSYFMYSKLTVEKKNWVERNSYSCSVVHEGLHNHHTTKSFSRTPGGGGGSGGGGSGGGGSGGGGSQVQLVQSGAEVKKPGASVKVSCKASGDTFTRYYVHWVRQAPGQGLEWMGIINPSGGYASYAQKFQGRVTMTRDTSTSTVYMELSSLRSEDTAVYYCAAGLFIWGQGTLVTVSSASGGGGSGGGGSGGGGSHASDIQMTQSPSSLSASVGDRVTITCRASQSIGRYLAWYQQKPGKAPKLLIYSASNLETGVPSRFSGSGSGTDFTLTISSLQPEDFATYYCQQYNSFPVTFGPGTKVDIKGGGSGGGSHHHHHH
heavy 2: QVQLVESGGGVVQPGRSLRLDCKASGITFSNSGMHWVRQAPGKGLEWVAVIWYDGSKRYYADSVKGRFTISRDNSKNTLFLQMNSLRAEDTAVYYCATNDDYWGQGTLVTVSSAKTTAPSVYPLAPVCGDTTGSSVTLGCLVKGYFPEPVTLTWNSGSLSSGVHTFPAVLQSDLYTLSSSVTVTSSTWPSQSITCNVAHPASSTKVDKKIEPRGPTIKPCPPCKCPAPNAAGGPSVFIFPPKIKDVLMISLSPIVTCVVVDVSEDDPDVQISWFVNNVEVHTAQTQTHREDYNSTLRVVSALPIQHQDWMSGKEFKCKVNNKDLGAPIERTISKPKGSVRAPQVYVLPPPEEEMTKKQVTLTCMVTDFMPEDIYVEWTNNGKTELNYKNTEPVLDSDGSYFMYSDLRVEKKNWVERNSYSCSVVHEGLHNHHTTESFSRTPGGGGGSGGGGSGGGGSAPTSSSTKKTQLQLEHLLLDLQMILNGINNYKNPKLTDMLTFEFYMPKKATELKHLQCLERELKPLEEVLNLAQSKNFHLRPRDLISNINVIVLELKGSETTFMCEYADETATIVEFLNRWITFCQSIISTLT
light: EIVLTQSPATLSLSPGERATLSCRASQSVSSYLAWYQQKPGQAPRLLIYDASNRATGIPARFSGSGSGTDFTLTISSLEPEDFAVYYCQQSSNWPRTFGQGTKVEIKRADAAPTVSIFPPSSEQLTSGGASVVCFLNNFYPKDINVKWKIDGSERQNGVLNSWTDQDSKDSTYSMSSTLTLTKDEYERHNSYTCEATHKTSTSPIVKSFNRNEC
In the case of B1, the “EC50 of IL-2 activity, HEK-Blue IL-2 reporter cells, PD-1 coated wells” value (“EC50 of IL-2 activity … PD-1 coated wells” below) is reported as 31 pM and the “EC50 of IL-2 activity, HEK-Blue IL-2 reporter cells, control wells (no PD-1)” value is reported as 62 pM.

B2: AF4404 (other)
heavy 1: QVQLVESGGGVVQPGRSLRLDCKASGITFSNSGMHWVRQAPGKGLEWVAVIWYDGSKRYYADSVKGRFTISRDNSKNTLFLQMNSLRAEDTAVYYCATNDDYWGQGTLVTVSSAKTTAPSVYPLAPVCGDTTGSSVTLGCLVKGYFPEPVTLTWNSGSLSSGVHTFPAVLQSDLYTLSSSVTVTSSTWPSQSITCNVAHPASSTKVDKKIEPRGPTIKPCPPCKCPAPNAAGGPSVFIFPPKIKDVLMISLSPIVTCVVVDVSEDDPDVQISWFVNNVEVHTAQTQTHREDYNSTLRVVSALPIQHQDWMSGKEFKCKVNNKDLGAPIERTISKPKGSVRAPQVYVLPPPEKEMTKKQVSLTCLVKDFMPEDIYVEWTNNGKTELNYKNTEPVLKSDGSYFMYSKLTVEKKNWVERNSYSCSVVHEGLHNHHTTKSFSRTPGGGGGSGGGGSGGGGSGGGGSQVQLVQSGAEVKKPGASVKVSCKASGYTFTDYYMHWVRQAPGQGLEWMGIINPRAGYTSYALKFQGRVTMTRDTSTSTVYMELSSLRSEDTAVYYCTSGWDVWGQGTLVTVSSASGGGGSGGGGSGGGGSHASDIQMTQSPSSLSASVGDRVTITCRASQSISTWLAWYQQKPGKAPKLLIYAASSLDSGVPSRFSGSGSGTDFTLTISSLQPEDFATYYCQQSYSFPVTFGQGTKVEIKGGGSGGGSHHHHHH
heavy 2: B1 heavy 2
light: B1 light
For B2, the “EC50 of IL-2 activity … PD-1 coated wells” value was 26 pM and the “EC50 of IL-2 activity, HEK-Blue IL-2 reporter cells, control wells (no PD-1)” value was 64 pM.

B3: AF4379 (other)
heavy: APTSSSTKKTQLQLEHLLLDLQMILNGINNYKNPKLTDMLTFEFYMPKKATELKHLQCLERELKPLEEVLNLAQSKNFHLRPRDLISNINVIVLELKGSETTFMCEYADETATIVEFLNRWITFCQSIISTLTGGGGSGGGGSGGGGSGGGGSQVQLVQSGAEVKKPGASVKVSCKASGDTFTRYYVHWVRQAPGQGLEWMGIINPSGGYASYAQKFQGRVTMTRDTSTSTVYMELSSLRSEDTAVYYCAAGLFIWGQGTLVTVSSAKTTAPSVYPLAPVCGDTTGSSVTLGCLVKGYFPEPVTLTWNSGSLSSGVHTFPAVLQSDLYTLSSSVTVTSSTWPSQSITCNVAHPASSTKVDKKIEPRGPTIKPCPPCKCPAPNAAGGPSVFIFPPKIKDVLMISLSPIVTCVVVDVSEDDPDVQISWFVNNVEVHTAQTQTHREDYNSTLRVVSALPIQHQDWMSGKEFKCKVNNKDLGAPIERTISKPKGSVRAPQVYVLPPPEEEMTKKQVTLTCMVTDFMPEDIYVEWTNNGKTELNYKNTEPVLDSDGSYFMYSKLRVEKKNWVERNSYSCSVVHEGLHNHHTTKSFSRTPGK
light: DIQMTQSPSSLSASVGDRVTITCRASQSIGRYLAWYQQKPGKAPKLLIYSASNLETGVPSRFSGSGSGTDFTLTISSLQPEDFATYYCQQYNSFPVTFGPGTKVDIKRADAAPTVSIFPPSSEQLTSGGASVVCFLNNFYPKDINVKWKIDGSERQNGVLNSWTDQDSKDSTYSMSSTLTLTKDEYERHNSYTCEATHKTSTSPIVKSFNRNEC
B3 was tested, and the “EC50 of IL-2 activity, HEK-Blue IL-2 reporter cells, IgG1 coated wells (no PD-1)” value was 62 pM and the “EC50 of IL-2 activity … PD-1 coated wells” value was 31 pM.

B4: AF4389 (other)
heavy 1: B3 heavy with D180H, V187M, S212T, A251S, K558D, K588E
heavy 2: QVQLVQSGAEVKKPGASVKVSCKASGHTFTRYYMHWVRQAPGQGLEWMGIINPSGGYATYAQKFQGRVTMTRDTSTSTVYMELSSLRSEDTAVYYCASGLFIWGQGTLVTVSSAKTTAPSVYPLAPVCGDTTGSSVTLGCLVKGYFPEPVTLTWNSGSLSSGVHTFPAVLQSDLYTLSSSVTVTSSTWPSQSITCNVAHPASSTKVDKKIEPRGPTIKPCPPCKCPAPNAAGGPSVFIFPPKIKDVLMISLSPIVTCVVVDVSEDDPDVQISWFVNNVEVHTAQTQTHREDYNSTLRVVSALPIQHQDWMSGKEFKCKVNNKDLGAPIERTISKPKGSVRAPQVYVLPPPEKEMTKKQVSLTCLVKDFMPEDIYVEWTNNGKTELNYKNTEPVLKSDGSYFMYSKLTVEKKNWVERNSYSCSVVHEGLHNHHTTKSFSRTPGGGGSGGGSHHHHHH
light: DIQMTQSPSSLSASVGDRVTITCRASQSINSWLAWYQQKPGKAPKLLIYATSTLESGVPSRFSGSGSGTDFTLTISSLQPEDFATYYCQQYYRFPVTFGQGTKVEIKRADAAPTVSIFPPSSEQLTSGGASVVCFLNNFYPKDINVKWKIDGSERQNGVLNSWTDQDSKDSTYSMSSTLTLTKDEYERHNSYTCEATHKTSTSPIVKSFNRNEC
With B4 the “EC50 of IL-2 activity, HEK-Blue IL-2 reporter cells, IgG1 coated wells (no PD-1)” value was 1670 pM and the “EC50 of IL-2 activity … PD-1 coated wells” value was 118 pM.
